Measurements as given in patent US20200297834A1.

Key:
[1] = target: VEEV E2 (of VEEV TC-83, in infected Vero cells) (Venezuelan equine encephalitis virus, strain TC-83) (UniProt P05674); experiment: confocal microscopy, line scan of z-stack, VEEV TC-83 infected Vero cells, 16 h
[2] = target: VEEV capsid (of VEEV TC-83, in infected Vero cells) (Venezuelan equine encephalitis virus, strain TC-83) (UniProt P05674); experiment: as above

Substance | Pearson's correlation (co-localization) [1] | Pearson's correlation (co-localization) [2]
PKCδ (endogenous, Vero cells) (enzyme) | 0.581 | 
PKCδ (endogenous, Vero cells) |  | 0.771
